# Laboratory results: article PMC11036296
# Target: Patched 1 (Ptch1) receptor (mouse (endogenous in C3H10T1/2)) (UniProt Q61115)
# Chain of UniProt Q61115 (Q61115 whole entry): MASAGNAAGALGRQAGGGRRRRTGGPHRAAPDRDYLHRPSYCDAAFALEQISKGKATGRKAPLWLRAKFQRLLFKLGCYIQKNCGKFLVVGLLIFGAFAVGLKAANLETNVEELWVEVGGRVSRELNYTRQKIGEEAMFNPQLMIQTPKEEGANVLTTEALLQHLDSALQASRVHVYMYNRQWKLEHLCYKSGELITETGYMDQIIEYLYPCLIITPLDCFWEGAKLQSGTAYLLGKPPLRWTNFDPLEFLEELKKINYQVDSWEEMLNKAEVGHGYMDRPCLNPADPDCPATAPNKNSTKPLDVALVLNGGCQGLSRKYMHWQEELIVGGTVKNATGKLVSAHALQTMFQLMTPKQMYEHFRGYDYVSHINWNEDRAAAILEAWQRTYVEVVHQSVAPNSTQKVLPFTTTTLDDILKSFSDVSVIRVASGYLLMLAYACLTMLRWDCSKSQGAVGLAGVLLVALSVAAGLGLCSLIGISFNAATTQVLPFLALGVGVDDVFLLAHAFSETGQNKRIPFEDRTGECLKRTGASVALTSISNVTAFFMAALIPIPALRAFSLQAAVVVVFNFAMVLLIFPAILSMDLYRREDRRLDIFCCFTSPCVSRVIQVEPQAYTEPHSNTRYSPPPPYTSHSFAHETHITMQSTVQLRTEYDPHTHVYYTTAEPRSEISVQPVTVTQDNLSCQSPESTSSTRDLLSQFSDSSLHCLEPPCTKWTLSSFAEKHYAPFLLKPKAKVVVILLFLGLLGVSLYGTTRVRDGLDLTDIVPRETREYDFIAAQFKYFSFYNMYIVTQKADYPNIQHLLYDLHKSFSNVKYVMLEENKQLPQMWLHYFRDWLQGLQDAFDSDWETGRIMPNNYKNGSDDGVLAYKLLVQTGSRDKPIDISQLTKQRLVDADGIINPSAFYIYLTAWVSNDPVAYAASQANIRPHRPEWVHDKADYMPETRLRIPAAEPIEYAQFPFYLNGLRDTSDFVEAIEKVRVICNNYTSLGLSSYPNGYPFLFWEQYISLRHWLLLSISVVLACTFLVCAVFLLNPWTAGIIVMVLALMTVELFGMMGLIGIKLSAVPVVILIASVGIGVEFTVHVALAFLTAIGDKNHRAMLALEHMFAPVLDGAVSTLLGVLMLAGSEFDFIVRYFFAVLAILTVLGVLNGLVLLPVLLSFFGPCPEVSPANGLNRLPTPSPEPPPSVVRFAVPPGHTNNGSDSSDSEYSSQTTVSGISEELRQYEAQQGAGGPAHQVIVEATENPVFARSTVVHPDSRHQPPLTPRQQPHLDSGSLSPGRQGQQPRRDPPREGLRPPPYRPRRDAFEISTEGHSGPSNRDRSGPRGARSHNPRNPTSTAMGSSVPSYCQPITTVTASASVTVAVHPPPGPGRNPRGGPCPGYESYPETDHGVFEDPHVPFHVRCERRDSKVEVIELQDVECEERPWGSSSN
Alp1 activity of C3H10T1/2 cells (differentiation into osteoblasts) [au],"Alp1 activity of C3H10T1/2 cells (differentiation into osteoblasts), with the Shh-neutralising antibody 5E1 (1 µg/mL) [au]",Substance
0.46,,^C25S;Δ26–37Shh^C (from UniProt Q62226 25-198) (ligand)
0.38,,^C25S;Δ26–35Shh^C (from UniProt Q62226 25-198) (ligand)
1.5,0.26,"Shh^C, soluble depalmitoylated (N-terminally processed), C-cholesteroylated Sonic hedgehog released in the presence of 10% serum (ligand)"
1.41,,^C25S;Δ26–31Shh^C (from UniProt Q62226 25-198) (ligand)
1.26,,^C25S;Δ26–32Shh^C (from UniProt Q62226 25-198) (ligand)
1.65,,^C25S;Δ26–33Shh^C (from UniProt Q62226 25-198) (ligand)
1.71,0.21,"^C25SShh^C, unpalmitoylated cholesteroylated soluble Shh (from UniProt Q62226 25-198) (ligand)"
0.7,,^C25S;Δ26–34Shh^C (from UniProt Q62226 25-198) (ligand)
0.36,,^C25S;Δ26–38Shh^C (from UniProt Q62226 25-198) (ligand)
0.39,,^C25S;Δ26–36Shh^C (from UniProt Q62226 25-198) (ligand)
